The target in experiment [1] is T1, 4H4073-bA.
T1 chain: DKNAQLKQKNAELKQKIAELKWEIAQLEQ
Kind of experiment: two-hybrid library CCNG1.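 Also: natural log of median RNA to DNA barcode read ratio; higher means stronger binding.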

In experiment [2] the target is T2, 4H780-bA.
T2 chain: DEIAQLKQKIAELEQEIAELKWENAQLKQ
Kind of experiment: two-hybrid library CCNG1.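 Also: natural log of median RNA to DNA barcode read ratio; higher means stronger binding.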

In experiment [3] the target is T3, 4H626-bA.
T3 chain: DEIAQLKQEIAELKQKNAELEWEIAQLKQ
Kind of experiment: two-hybrid library CCNG1.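 Also: natural log of median RNA to DNA barcode read ratio; higher means stronger binding.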

Experiment [4] addresses T4, 4H457-bA.
T4 chain: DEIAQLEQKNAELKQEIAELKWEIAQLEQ
Kind of experiment: two-hybrid library CCNG1.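 Also: natural log of median RNA to DNA barcode read ratio; higher means stronger binding.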

For experiment [5], the target named is T5, 4H968-bA.
T5 chain: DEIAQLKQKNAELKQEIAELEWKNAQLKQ
Kind of experiment: two-hybrid library CCNG1.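 Also: natural log of median RNA to DNA barcode read ratio; higher means stronger binding.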

Experiment [6] deals with T6, 4H683-bA.
T6 chain: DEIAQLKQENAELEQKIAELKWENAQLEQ
Kind of experiment: two-hybrid library CCNG1.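 Also: natural log of median RNA to DNA barcode read ratio; higher means stronger binding.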

The target in experiment [7] is T7, 4H575-bA.
T7 chain: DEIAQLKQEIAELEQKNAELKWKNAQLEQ
Kind of experiment: two-hybrid library CCNG1.

For experiment [8], the target named is T8, 4H855-bA.
T8 chain: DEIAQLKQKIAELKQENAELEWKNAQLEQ
Briefly: two-hybrid library CCNG1.

Experiment [9] concerns the target T9, 4H797-bA.
T9 chain: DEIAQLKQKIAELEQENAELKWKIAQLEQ
Briefly: two-hybrid library CCNG1.

Experiment [10] deals with T10, 4H953-bA.
T10 chain: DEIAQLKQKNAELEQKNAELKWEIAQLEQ
Briefly: two-hybrid library CCNG1.

Experiment [11] concerns the target T11, 4H3926-bA.
T11 chain: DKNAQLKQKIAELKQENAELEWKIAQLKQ
Briefly: two-hybrid library CCNG1. The note with it: mean of both orientations.

Experiment [12] addresses T12, 4H918-bA.
T12 chain: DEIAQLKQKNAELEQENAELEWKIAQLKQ
Kind of experiment: two-hybrid library CCNG1.

For experiment [13], the target named is T13, 4H591-bA.
T13 chain: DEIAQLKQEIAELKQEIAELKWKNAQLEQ
Kind of experiment: two-hybrid library CCNG1.

Experiment [14] deals with T14, 4H754-bA.
T14 chain: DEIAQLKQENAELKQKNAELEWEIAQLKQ
Kind of experiment: two-hybrid library CCNG1.

Experiment [15] deals with T15, 4H906-bA.
T15 chain: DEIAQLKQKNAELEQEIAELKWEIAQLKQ
Briefly: two-hybrid library CCNG1.

Experiment [16] deals with T16, O8-bP.
T16 chain: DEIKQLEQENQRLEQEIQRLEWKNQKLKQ
Briefly: two-hybrid library CCNG1.

The target of experiment [17] is T17, O9-bP.
T17 chain: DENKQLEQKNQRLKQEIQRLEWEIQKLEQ
Briefly: two-hybrid library CCNG1.

The target in experiment [18] is T18, 4H855-bH.
T18 chain: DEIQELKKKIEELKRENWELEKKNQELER
Briefly: two-hybrid library CCNG1.

The target of experiment [19] is T19, 4H683-bH.
T19 chain: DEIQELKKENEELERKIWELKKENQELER
Briefly: two-hybrid library CCNG1.

In experiment [20] the target is T20, 4H4073-bH.
T20 chain: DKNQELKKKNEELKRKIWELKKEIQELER
Kind of experiment: two-hybrid library CCNG1.

Experiment [21] concerns the target T21, 4H575-bH.
T21 chain: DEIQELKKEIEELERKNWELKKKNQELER
Kind of experiment: two-hybrid library CCNG1.

Experiment [22] addresses T22, 4H953-bH.
T22 chain: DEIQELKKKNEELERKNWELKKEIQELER
Kind of experiment: two-hybrid library CCNG1.

Experiment [23] concerns the target T23, 4H797-bH.
T23 chain: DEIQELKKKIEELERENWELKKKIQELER
Briefly: two-hybrid library CCNG1.

Experiment [24] has as its target T24, 4H850-bA.
T24 chain: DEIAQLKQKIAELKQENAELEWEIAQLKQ
Kind of experiment: two-hybrid library CCNG1.

Experiment [25] addresses T25, 4H754-bH.
T25 chain: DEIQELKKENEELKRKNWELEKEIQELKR
Kind of experiment: two-hybrid library CCNG1.

Experiment [26] deals with T26, 4H780-bH.
T26 chain: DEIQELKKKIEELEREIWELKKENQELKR
Kind of experiment: two-hybrid library CCNG1.

For experiment [27], the target named is T27, 4H457-bH.
T27 chain: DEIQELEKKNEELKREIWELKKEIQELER
Briefly: two-hybrid library CCNG1.

In experiment [28] the target is T28, 4H968-bH.
T28 chain: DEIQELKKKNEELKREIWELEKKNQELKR
Briefly: two-hybrid library CCNG1.

In experiment [29] the target is T29, P7mS.
T29 chain: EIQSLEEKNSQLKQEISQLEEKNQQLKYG
Briefly: two-hybrid library CC1.

The target in experiment [30] is T30, P9.
T30 chain: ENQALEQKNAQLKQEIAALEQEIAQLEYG
Briefly: two-hybrid library CC1. The conditions noted are these: mean of both orientations.

Experiment [31] addresses T31, P8.
T31 chain: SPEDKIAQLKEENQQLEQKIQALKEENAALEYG
Kind of experiment: two-hybrid library CC1. The note with it: mean of both orientations.

Experiment [32] concerns the target T32, P8mS.
T32 chain: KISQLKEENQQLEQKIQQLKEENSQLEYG
Briefly: two-hybrid library CC1. The conditions noted are these: mean of both orientations.

Experiment [33] has as its target T33, 4H850-bN.
T33 chain: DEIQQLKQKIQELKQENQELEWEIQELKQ
Kind of experiment: two-hybrid library CCNG1.

The target in experiment [34] is T34, 4H906-bN.
T34 chain: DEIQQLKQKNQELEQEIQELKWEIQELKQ
Briefly: two-hybrid library CCNG1.

Experiment [35] has as its target T35, 4H584-bN.
T35 chain: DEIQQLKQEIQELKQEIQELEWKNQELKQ
Kind of experiment: two-hybrid library CCNG1.

Experiment [36] has as its target T36, 4H619-bN.
T36 chain: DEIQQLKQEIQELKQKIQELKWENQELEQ
Briefly: two-hybrid library CCNG1.

Experiment [37] deals with T37, 4H918-bH.
T37 chain: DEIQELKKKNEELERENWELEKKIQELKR
Briefly: two-hybrid library CCNG1.

The target in experiment [38] is T38, 4H626-bH.
T38 chain: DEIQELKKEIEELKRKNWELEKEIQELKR
Kind of experiment: two-hybrid library CCNG1.

The target of experiment [39] is T39, 4H906-bH.
T39 chain: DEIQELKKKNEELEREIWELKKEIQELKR
Briefly: two-hybrid library CCNG1.

Experiment [40] deals with T40, 4H568-bA.
T40 chain: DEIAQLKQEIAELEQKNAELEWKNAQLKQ
Kind of experiment: two-hybrid library CCNG1.

The target in experiment [41] is T41, 4H3926-bH.
T41 chain: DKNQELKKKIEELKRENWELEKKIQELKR
Kind of experiment: two-hybrid library CCNG1. The note with it: mean of both orientations.

The target of experiment [42] is T42, 4H591-bH.
T42 chain: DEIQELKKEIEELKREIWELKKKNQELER
Kind of experiment: two-hybrid library CCNG1.

Experiment [43] has as its target 4H_GCN4. Kind of experiment: two-hybrid library CCmax.
For experiment [44], the target named is GCN2_T. Kind of experiment: two-hybrid library CCmax.
Experiment [45] concerns the target T43, 4H_APH.
T43 chain: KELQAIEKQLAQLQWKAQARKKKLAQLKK
Kind of experiment: two-hybrid library CCmax.

In experiment [46] the target is T44, 4H486-AA.
T44 chain: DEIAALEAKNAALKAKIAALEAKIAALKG
Briefly: two-hybrid library CCmax.

The target of experiment [47] is T45, 4H535-AA.
T45 chain: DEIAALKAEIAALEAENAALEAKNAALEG
Briefly: two-hybrid library CCmax. The conditions noted are these: mean of both orientations.

Experiment [48] deals with T46, 4H58-AA.
T46 chain: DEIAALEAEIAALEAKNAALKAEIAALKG
Briefly: two-hybrid library CCmax. The note with it: mean of both orientations.

Experiment [49] deals with T47, 4H895-AA.
T47 chain: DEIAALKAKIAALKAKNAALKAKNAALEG
Briefly: two-hybrid library CCmax. The conditions noted are these: mean of both orientations.

Experiment [50] concerns the target T48, 4H_BCR.
T48 chain: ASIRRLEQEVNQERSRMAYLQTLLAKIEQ
Briefly: two-hybrid library CCmax. The conditions noted are these: mean of both orientations.

Experiment [51] has as its target T49, 4H570-bN.
T49 chain: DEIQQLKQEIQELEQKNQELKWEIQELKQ
Kind of experiment: two-hybrid library CCNG1.

For experiment [52], the target named is T50, 4H3974-bN.
T50 chain: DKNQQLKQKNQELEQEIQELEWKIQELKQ
Briefly: two-hybrid library CCNG1.

Experiment [53] has as its target T51, 4H3974-bA.
T51 chain: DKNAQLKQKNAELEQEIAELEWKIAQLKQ
Briefly: two-hybrid library CCNG1.

For experiment [54], the target named is T52, 4H570-bA.
T52 chain: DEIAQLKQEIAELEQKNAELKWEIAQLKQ
Briefly: two-hybrid library CCNG1.

Experiment [55] deals with T53, 4H584-bA.
T53 chain: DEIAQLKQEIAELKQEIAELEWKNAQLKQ
Briefly: two-hybrid library CCNG1.

The target in experiment [56] is T54, 4H619-bA.
T54 chain: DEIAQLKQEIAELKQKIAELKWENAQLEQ
Kind of experiment: two-hybrid library CCNG1.

Read-outs that look alike come from different tables or passages of the source.

4H_GCN4, sequence (chain, as listed by the source): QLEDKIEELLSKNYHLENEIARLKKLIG

For DKNAQLKQKIAELKQENAELEWKIAQLKQ [4H3926-bA], the interaction score is -0.409 in experiment [1]; -0.771 in experiment [2]; -0.259 in [3]; 0.866 in experiment [4]; 1.59 in experiment [5]; -0.786 in [6]. The interaction score in [7] was 0.34; in [8] it was -1.23; in experiment [9] it was 0; in experiment [10] it was 0.769; in experiment [11], -0.117; in experiment [12], -0.539. Moreover, the interaction score in [13] was -1.19; in experiment [14], -0.909; in experiment [15], -1.13.

Consider DEIKQLEQENQRLEQEIQRLEWKNQKLKQ [O8-bP], for which the interaction score in experiment [16] was -1.1; in experiment [17], -0.57.

With DKNQELKKKNEELKRKIWELKKEIQELER [4H4073-bH], the interaction score in experiment [18] is -1.09; in experiment [19], -0.249; in [20], -0.834; in experiment [21] it was -1.03; in experiment [22], -1.39; in [23] it was -0.554. In addition, the interaction score in experiment [24] is -2.46; in experiment [25], -1.38; in experiment [26] it was -0.609; in experiment [27] it was -0.419; in experiment [28] it was -1.06.

EIQSLEEKNSQLKQEISQLEEKNQQLKYG [P7mS]: the interaction score in [29] was -2.53; in [30], -2.27; in [31], 0.285; in [32] it was -0.225.

Consider DEIQQLKQEIQELKQEIQELEWKNQELKQ [4H584-bN], for which the interaction score in [33] is 0.196; in experiment [34] it was -0.43; in experiment [35] it was 0.406; in experiment [36] it was 1.21.

Turning to DENKQLEQKNQRLKQEIQRLEWEIQKLEQ [O9-bP], in experiment [17] (mean of both orientations), the interaction score is -0.872.

DEIQELEKKNEELKREIWELKKEIQELER [4H457-bH]: the interaction score in experiment [18] was -1.6; in experiment [19] it was -0.297; in experiment [37], -0.832; in [5], 0.553; in [21], -1.98; in [22], -0.857. Moreover, the interaction score in [23] is -0.848; in [25], -0.826; in [26], -1.57; in [27], 0.207; in [28], 0.389.

With DKNQELKKKIEELKRENWELEKKIQELKR [4H3926-bH], the interaction score in [38] is -1.31; in [18], -0.798; in experiment [19], -0.233; in [39], -1.18; in experiment [20] it was -0.649; in experiment [40], 0.77. The interaction score in experiment [41] is 0.997; in experiment [21], -0.061; in experiment [22], 1.52; in [42] it was -1.8; in experiment [23] it was 0.147; in experiment [25], 0.0882. For the same molecule, the interaction score in experiment [26] was -0.369; in experiment [27] it was 0.423; in [28], 1.04.

DEIAALEAKNAALKAKIAALEAKIAALKG [4H486-AA]: the interaction score in experiment [43] was -1.06; in experiment [44] it was -0.249; in experiment [45] it was -1.97; in experiment [46], 0.819; in experiment [47], -1.16; in experiment [48], -0.289. The interaction score is -1.84 in experiment [49] and -1.34 in [50].

Consider DKNQQLKQKNQELEQEIQELEWKIQELKQ [4H3974-bN], for which the interaction score is -1.69 in experiment [51]; 0.5 in [33]; -0.444 in experiment [52]; -0.832 in experiment [34]; -0.919 in experiment [35]; -0.273 in [36].

On to DKNAQLKQKNAELEQEIAELEWKIAQLKQ [4H3974-bA], for which the interaction score is -0.293 in experiment [53]; -0.136 in experiment [54]; -1.38 in experiment [55]; -0.503 in [56]; -1.84 in [24]; -1.37 in experiment [15].

The values above are taken from publication PMC10397247.
